Results: publication PMC11429574, “Biophysical and Solution Structure Analysis of Critical Residues Involved in the Interaction between the PupB N-Terminal Signaling Domain and PupR C-Terminal Cell Surface Signaling Domain from Pseudomonas capeferrum” (Biomolecules, 2024)
Where a chain is given by its changes, count along the chain named. In names and notes the source's numbering stands.

T1: PupB N-terminal signaling domain H72D (Pseudomonas capeferrum), P38047
T1 chain: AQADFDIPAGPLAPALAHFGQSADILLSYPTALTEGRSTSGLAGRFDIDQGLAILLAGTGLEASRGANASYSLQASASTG

B1: MBP-PupR C-terminal cell surface signaling domain (domain or fragment, Pseudomonas capeferrum)
chain: QDWRADYHSRIGEQRRLTLADGTQVQLNTDSALNVAFDQQARRLRLVRGEMLITRPALADSRPLWVDTEHGRLESTLAQFNVRLHGQHTQATVYQGSVALQPALHAYPPILLGAGEQASFNQQGLLARQAVAAVAPAWSQGMLVAQGQPLAAFIEDLARYRRGHLACDPALAGLRVSGTFPLENTDKIIAAVAETLQLEVQHFTRYWVTLKPRMA
notes: PupR, inner membrane sigma regulator (anti-sigma factor) of Pseudomonas capeferrum; periplasmic C-terminal cell surface signaling domain; residues A240 to A300 are named as interface residues; A TEV site lies between MBP and the domain; the MBP fusion was used uncleaved in the ITC for solubility and stability; also called MBP-PupR CCSSD; PupR CCSSD; not shown: MBP, N-terminal, kept
B2: PupB N-terminal signaling domain Q69K (domain or fragment, Pseudomonas capeferrum)
chain: T1 chain with Q21K, D24H
notes: PupB of Pseudomonas capeferrum, N-terminal signaling domain, 82 residues; also called PupB NTSD Q69K; Q79K (misprint in two places); source: pET41 GST-PupB NTSD plasmid

Experiments:
Assay in all cases: ITC; MBP-PupR CCSSD (140-230 µM) titrated into PupB NTSD mutants (20-70 µM); 15 °C; 25 mM HEPES pH 7.5, 400 mM LiCl, 10% glycerol; triplicate, global single-site analysis (NITPIC, SEDPHAT)
[1] = target: B2; details: both partners purified
[2] = target: T1, PupB N-terminal signaling domain H72D …; details: remark: other sources report otherwise
[3] = target: B1; details: both partners purified

Binder	dH [1] [kcal/mol]	Kd [2] [µM]	dH [2] [kcal/mol]	Kd [3] [µM]
B1	-14.5	27.7	-23	
B2				1.55
